Consider 1 substance from patent publication US20180196058A1.

This assay deals with Recombinant human IFN-gamma (eBioscience) (human) (UniProt P01579). Put plainly: sandwich on beads, LC MS/MS of released iCOREs; IFN-gamma iCORE peak against the peak of the iCORE on the anti-TNF-alpha detection antibody.
Recombinant human IFN-gamma (eBioscience) (human), sequence (P01579 24-166 limits assumed): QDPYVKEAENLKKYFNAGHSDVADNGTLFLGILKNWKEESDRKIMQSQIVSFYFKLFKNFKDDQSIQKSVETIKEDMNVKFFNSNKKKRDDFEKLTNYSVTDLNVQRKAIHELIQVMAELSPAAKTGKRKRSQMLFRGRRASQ

As to “iCORE-labeled detection antibody against human IFN-gamma, clone 4S.B3 (eBioscience)”, the signal to noise is 10.
